From patent US20240218057A1 (ROCKEFELLER UNIVERSITY, published 2024)
Where a chain is given by its changes, count along the chain named.

B1: C1032 (antibody, V domains shown)
VH: EVQLVESGGSLVKPGGSLRLSCVASGLTFNHAWMSWVRQAPGKGLEWVGRIKSKIDGGTTDYAAPVKGRFTISRDDSKSTQYLQMNSLKTEDTAVYYCTTDCFWRLGGTTCYEHDAFDVWGQGTMVTVS
VL: DIQMTQSPSSLSASVGDRVTITCRASQAIATFLNWYQQKPGKAPKLLIYAASSLQSGVPSRFSGSGSGTDFTLTISSLQPEDFATYYCQQSYNSLHFGGGTKVEIK
notes: IgG; V domains only
B2: C1025 (antibody, V domains shown)
VH: EVQLVESGGGLVQPGRSLRLSCAASGFTFDDYAMHWVRQVPGKGLEWVSGVSWNGDSVGYADSMEGRFTISRDNAKNSLYLQMNSLRTEDTALYYCAKGVDYSSSSNFDFWGQGTLVTVSS
VL: DIQMTQSPSSVSASVGDRVTITCRASQGISSWLAWYQQKPGKAPKLLISLASSLQSGVPSRFSGSGSETDFTLIISSLQPEDFATYYCQQSSSFPLTFGGGTKVEIK
notes: IgG; V domains only
B3: C1028 (antibody, V domains shown)
VH: QVQLVESGGGVVQPGRSLRLSCADSGFTFSSSGMHWVRQAPGKGLEWVGVISYDGGNKYYADSVKGRFTISRDNSKNTLYLQMNSLRAEDTAVYYCAKDTPGGDDIMTGWGLYGMDVWGQGTTVTVSS
VL: DIQMTQSPSSLSASVEDRVTITCRASQSISSYLNWYQQKPGKAPKLLIYAAISLQSGVPSRFSGSGSGTEFTLTISSLQPEDFATYYCQQSYTTPWAFGQGTKVEIK
notes: IgG; V domains only
B4: C1020 (antibody, V domains shown)
VH: QVQLVQSGAEVKKPGASVKISCKASGYSFSNYYIHWVRQAPGQGLEWMGIINPSGNSISYAQKFQGRVTMTGDTSTSTVYMELSSLRSEDTAVYYCARSVFPVPAAGGCDYWGQGTLVTVSS
VL: DIQMTQSPSSLSASVGDRVTITCRASQSITTSLNWYQQKPGKAPKLLIYSASTLESGVPSRFSGSGSGTDFTLTISSLQPEDFATYYCQQTYRAPPYTFGQGTKLEIK
notes: IgG; V domains only
B5: C1026 (antibody, V domains shown)
VH: QVQLVESGGGVVQPGKSLRLSCAASGFIFSSYSMHWVRQAPGKGLEWVAVVSNDGSGKFYADSVRGRFTIFRDNSKNTLYLQVSSLRAEDTAVYYCARDALTSISVLFDCWGQGTLVTVSS
VL: DIQMTQSPSSLSASLGDRVTITCRASQSISNYLNWYQQKPGKAPKLLIYGASSLQSGVPSRFSGSGSGTDFTLTISNLQPEDFATYFCQQSYSTPSVTFGGGTKVEIK
notes: IgG; V domains only
B6: C1021 (antibody, V domains shown)
VH: QVQLVQSGAELKKPGASVKVSCKASGYTFSTYYIHWVRQAPGQGLEWMGIINPEAGSTSYAQKFQGRVTMTTDTSTSTVYMELISLRSQDTAIYYCARDAVGVPAINSLEYWGQGTLVTVSS
VL: EIVLTQSPATLSLSPGERATLSCRASQSISSYLAWYQQKPGQAPRLLIYDASNRATDISARFSGSGSGTDFTLTISSLEPEDFAVYYCQHRSNWPPSFTFGGGTKVEIK
notes: IgG; V domains only
B7: C1023 (antibody, V domains shown)
VH: QVQLVQSGAEMKKPGASVKISCKASGDTFTTNYFHWVRQAPGQGLEWMGIINPSAGSTTYAQRFQGRVTMTGDSSTNTVYLELRSLRSEDTAMYFCAKGSYIPAMRSSFDPWGQGTLVTVSS
VL: EIVLTQSPGTLSLSPGERATLSCRASQSVSHRYLAWYQQKPGQAPRLLIDGASNRATGIPDRFSGSGSGTDFTLTISRLEPEDFGVYYCQQYGSSPPFTFGQGTKLEIK
notes: IgG; V domains only
B8: C1033 (antibody, V domains shown)
VH: QVQLVQSGAEVKKPGSSVKVSCKASGGTFSRNVISWVRQAPGQGLEWMGGIIPMFGTANYAQKFQGRVTISADESTSTAYMELSSLRSEDTAVYYCAREDFILESAPIRENSYYYYGMDVWGQGTTVTVSS
VL: EIVLTQSPGTLSLSPGERATLSCRASQSVSSNYLAWYQQKPGQAPRLLIYDASSRATGIPDRFSGSGSGTDFTLTIRRLEPEDFAVYYCQQYGGSPRTFGQGTKVEIK
notes: IgG; V domains only
B9: C1029 (antibody, V domains shown)
VH: QVQLVESGGGVVQPGRSLRLSCAASGFTFSSFGMHWVRQAPGKGLEWVAVISYDGSYKDYGDSVKGRFTISRDNSKNTLYLQMNSLRAEDTAVYYCARDSNVDTVMVTWFDYWGRGTLVTVSS
VL: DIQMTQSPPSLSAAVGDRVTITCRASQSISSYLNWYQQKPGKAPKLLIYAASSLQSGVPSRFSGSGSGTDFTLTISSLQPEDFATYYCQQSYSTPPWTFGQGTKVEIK
notes: IgG; V domains only
B10: C1016 (antibody, V domains shown)
VH: QVQLQESGPGLVKPSGTLSLTCAVSGGPISSNHWWSWVRQPPGKGLEWIGEVYRNGNTNYHPSLKSRVTMSIDNSKNQFSLSLTSVTAADTAVYYCARGGDLAMGPEYLDFWGQGTLVTVSS
VL: QSALTQPASVSGSPGQSITISCTGTSSDVGANNYVSWYQQHPGKAPKLMIYDVINRPSGVSDRFSGSKSGNTASLTISGLQAEDEADYYCSSFSTSSTLLFGGGTKLTVL
notes: IgG; V domains only
B11: C1018 (antibody, V domains shown)
VH: QVQLVESGGGVVQPGRSLRLLCAASGFTFNTHGMHWVRQAPGKGLEWVAVIWFDGSNKYYADSVKGRFTISRDNSTNTLYLQMNSLRAEDTAVYYCARVYGGLPYYYAIDVWGQGTTVTVSS
VL: QSVLTQPPSVSGAPGQRVTISCAGSSSNIGAGYGVHWSQQLPGRPPKLLIYGDSNRPSGVPDRFSGSNSGTSASLAITGLQAEDEAVYYCQSYDRSLRAWVFGGGTKLSVL
notes: IgG; V domains only
B12: C1027 (antibody, V domains shown)
VH: EVQLVESGGGLVQPGGSLRLSCAASGFIVTTNYMSWVRQAPGKGLEWVSLIYPGGSTFYADSVEGRFTISRDNSKNTLYLQVNSLRVEDTAVYYCARDTFGRGDDHWGQGTLVTVSS
VL: DIQMTQSPSSLSASVGDRVTITCQASQDINIYLNWYQQRPGKAPKLLIYDASNLQTGVPSRFSGSGSGTDFTITISSLQPEDIATYYCQQYDNLPRSFGQGTKLEI
notes: IgG; V domains only
B13: C1008 (antibody, V domains shown)
VH: EVQLVESGGGLIQPGGSLRLSCAASGFTVSSNYMSWVRQAPGKGLEWVSVIYSGGSTYYADSVKGRFTISRDNSKNTLYLQMNSLRAEDTAVYYCARVVGYDFWSGYDGGYFDYWGQGTLVTVSS
VL: QSALTQPASVSGSPGQSITISCTGTSSDVGSYNLVSWYQQHPGKAPKLMIYEVSKRPSGVSNRFSGSKSGNTASLTISGLQAEDEADYYCCSYAGSSTWVFGGGTKLTVL
notes: IgG; V domains only
B14: C1009 (antibody, V domains shown)
VH: EVQLVESGGGLLQPGGSLRLSCAASGFSVSSNYMTWVRQAPGKGLEWVAAIYSGDSTYYVDSVKGRFIISRDNSKNTVYLHLSSLRAEDTAVYYCARLVGYDFRSGSDGGYFDYWGHGTLVTVSS
VL: B13 VL with V29I, S31N, E52D, A86T
notes: IgG; V domains only
B15: C1019 (antibody, V domains shown)
VH: QVQLVESGGGVVQPGTPLRLSCAASGFTFSSYAMHWVRQAPGKGLEWVAMISYDGGNKYYADSVKGRFTISRDNSKNTLFLQMNSLRGEDTAVYYCARSFSIRIGHKDNWGQGTLVTVSS
VL: NFMLTQPHSVSESPGKTVTISCTGSSGSIANNYVQWYQQRPGSAPTPVIYEDDQRPSGVPDRFSGSIDSSSNSASLSISGLKTEDEADYYCQSYDSTNFWVFGGGTKLTVL
notes: IgG; V domains only
B16: C1024 (antibody, V domains shown)
VH: QVQLVESGGGVVQPGRSLRLSCAASGFTFSDYAMHWVRQAPGKGLEWVAMISYDGNSQYYADSVKGRFTISRDNSKNTLYLQMNILRPEDTAVYYCARTFSIRIGHHDYWGQGTLVTVSS
VL: B15 VL with N31S, Q35H, P47T, Y50F, D53N, S77T, T97S, N98S
notes: IgG; V domains only
B17: C1031 (antibody, V domains shown)
VH: QLQLQESGPGLVKPSETLSLTCTVSGGSINTSTYYWGWIRQPPGKGLEWIGNIYYSGITYYNPSLKSRVTISVDTSKNQFSLKLRSVTAADTAVYYCARQHRFGSGSSELLWGQGTLVTVSS
VL: QSALTQPPSASGSPGQSVTISCTGTSSDVGSYNYVSWYQQHPGKAPKLMIYEVTKRPSGVPDRFSGSKSGNTASLTVSGLQADDEADYYCSSYAGSSNLVFGGGTKLTV
notes: IgG; V domains only
B18: C1022 (antibody, V domains shown)
VH: QVQLVQSGAEVKTPGASVKVSCQASGDTFTSQYLHWVRQAPGQGLEWMGIINPTAGSTTYAQKFQGRVTMTRDTSTSTVYMELRSLRSEDMAVYYCARGGFIPMVRGFIDHWGQGTLVTVSS
VL: QSALTQPASVSGSPGQSITISCTGTSSDVGGYNYVSWYQQHPGKAPKLMIYDVSNRPSGVSTRFSGSKSGNTASLTISGLQAEDEADYYCSSPTSSNTHVFGTGTKVTVL
notes: IgG; V domains only
B19: C1010 (antibody, V domains shown)
VH: QVQLVESGGGVVQPGRSLRLSCAASGFTFSSYAMHWVRQAPGKGLEWVAVISYDGSNKYYADSVKGRFTISRDNSKNTLYLQMNSLRAEDTAVYYCAKKGQPYCGGDCYFYYFDYWGQGTLVTVSS
VL: DIQMTQSPSSLSASLGDRVTITCQASQDISNYLNWYQQKPGKAPKLLIYDASNLETGVPSRFSGSGSGTDFTFTISSLQPEDIATYYCQQYDNLPPITFGQGTRLEIK
notes: IgG; V domains only
B20: C1011 (antibody, V domains shown)
VH: QVQLVESGGGVVQPGRSLRLSCAVSGFTFSHYAMHWVRQAPGKGLEWVAVISYDGADKYYADSVRGRFTIARDNSKNTLFLQMSSLRPEDTAVYYCAKKGQPYCGGDCHFYYLDYWGQGTLVTVSS
VL: B19 VL with L15V, Y32H, P80A
notes: IgG; V domains only
B21: C1014 (antibody, V domains shown)
VH: QVQLQESGPGLVRPSQTLSLTCTVSGGSIGSGAYWSWIRQHPAKGLEWIGYVYYSGSTFYNPSLETRVSISVDISKDQFSLELTSVTVADTAVYYCAREKIEVVSIEMRPHYYGIDVWGQGTTVTVSS
VL: EIVMTQSPATLSVSPGERATLSCRASQSISSNLAWYQQKPGQPPRLLIYGASTRATGIPARFSGSGSGTEFTLTISSLQSEDIAVYYCQHYNNWPPWTFGQGTKVDIK
notes: IgG; V domains only
B22: C1012 (antibody, V domains shown)
VH: QVQLVQSGAEVKKPGSSVKVSCKASGGTVNNYAINWVRQAPGQGLEWMGGIVPIFGTPNYAQKFQGRVTITADESTSTAYMELSSLRSEDTAVYYCAKVSLTLPIAAAPRFWFDSWGQGTLVTVSS
VL: EIVMTQSPATLSVSPGERATLSCRASQSVSSHLAWYQQKPGQAPRLLIYGASTRATGIPARFSGSGSGTEFTLTISSLQSEDFAVYYCQQYHNWPPALTFGGGTKVEIK
notes: IgG; V domains only
B23: C1013 (antibody, V domains shown)
VH: QVQLVQSGVEVKKPGSSVKVSCKASGGTFTDYAFSWVRQAPGQGLEWMGGIVPIFATPDYAEKFRGRVTITADESTSTAYMELSTLKSEDTAVYYCARASLTLPIRAAPRFWFDAWGQGTLVTVSS
VL: B22 VL with S28G, S31T, N93K
notes: IgG; V domains only

Biological target: T1, SARS-COV-2 RBD (SARS-COV-2, UniProt P0DTC2 319-539)
T1 construct: also called WT RBD
Experiment: ELISA, RBD coated

Binder	EC50 [ng/mL]
B1	2.89
B2	2.51
B3	3.58
B4	2.06
B5	2.5
B6	2.53
B7	1.13
B8	3.63
B9	2.86
B10	2.16
B11	3.09
B12	2.42
B13	17.2
B14	1.34
B15	2.8
B16	2.37
B17	8.71
B18	1.66
B19	2.45
B20	1.49
B21	2.95
B22	3.29
B23	8.92
